The source of these data is paper doi:10.1101/2021.07.22.453368.

Bounds are passed on as bounds.

The target of test [1] is junctional adhesion molecule-A (human) (UniProt Q9Y624). Kind of test: flow cytometry on cells.
The target in test [2] is human Nogo 66 receptor 1 (human) (UniProt Q9BZR6). Kind of test: flow cytometry on cells.
UniProt Q9BZR6, sequence (Q9BZR6 27-447): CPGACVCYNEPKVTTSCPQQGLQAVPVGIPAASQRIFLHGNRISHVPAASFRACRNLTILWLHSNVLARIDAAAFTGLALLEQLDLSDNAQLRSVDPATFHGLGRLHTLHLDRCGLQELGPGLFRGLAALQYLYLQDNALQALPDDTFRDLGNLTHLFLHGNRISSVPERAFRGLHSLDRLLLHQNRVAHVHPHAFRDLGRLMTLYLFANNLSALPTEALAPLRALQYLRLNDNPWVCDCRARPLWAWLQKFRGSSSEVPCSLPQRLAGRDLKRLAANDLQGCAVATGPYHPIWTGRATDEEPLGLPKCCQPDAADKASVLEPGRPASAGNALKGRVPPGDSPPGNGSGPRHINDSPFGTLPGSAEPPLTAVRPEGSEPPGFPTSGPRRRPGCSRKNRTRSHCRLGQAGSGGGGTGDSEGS

UniProt Q9Y624, sequence (Q9Y624 28-299): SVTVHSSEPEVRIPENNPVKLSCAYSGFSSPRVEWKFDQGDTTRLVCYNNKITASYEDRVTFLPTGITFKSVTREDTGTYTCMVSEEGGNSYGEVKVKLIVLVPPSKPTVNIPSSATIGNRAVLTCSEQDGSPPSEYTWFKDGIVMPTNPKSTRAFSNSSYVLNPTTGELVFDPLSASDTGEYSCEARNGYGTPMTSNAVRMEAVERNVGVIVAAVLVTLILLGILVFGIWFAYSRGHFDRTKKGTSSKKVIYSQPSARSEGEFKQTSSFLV

For the substance reovirus T3SA- virions (complex), the percent of receptor-expressing cells bound by reovirus in test [1] and in test [2] was over 50% each time.
